Read-outs that look alike come from different tables or passages of the source.
Legend:
[1] = test system: HIV strain HXB2 in MT4-X4 cells; assay: microbe, parasite or virus in culture; conditions: read-out: 50% inhibition concentration (IC50)
From the text: The virus used in this assay was the laboratory adapted reference strain HXB2 virus using CXCR4 as co-receptor. Cells were infected with 100 TCID50/ml of virus in the presence of three-fold dilutions of Alphabody starting at 2.5 microM. […] MTT is reduced to formazan by living cells. Solubilization of the formazan crystals results in a colored product that can be measured by spectrophotometry at 540 nm. The cellular toxicity of the Alphabodies was monitored in the same assay using the same read-out, i.e. cell survival. As controls, the clinically approved T20 peptide (Fuzeon®, Roche) was used, as well as the CXCR4 antagonist, AMD3100 (Mozobile™, Genzyme).

[2] = test system: HIV strain HXB2 in PBMC; assay: microbe, parasite or virus in culture; conditions: read-out: 50% inhibition concentration (IC50)
Description: PBMC were infected with 4000 TCID50/ml of virus and added to serial dilutions of scAB_C2 starting at 2 microM. After 7 days, the amplification of the virus in absence and presence of scAB_C2 was monitored by measuring the viral p24 concentration. The maximal p24 concentration was measured when PBMC and virus were incubated without inhibitory molecules and was set at 100% viral amplification. As controls, the clinically approved T20 (Fuzeon®, Roche) was used, as well as the CXCR4 antagonist, AMD3100 (Mozobile™, Genzyme).

[3] = target: HIV-1 gp41 HR2-derived biotinylated peptide C36 (HIV-1 HXB2); assay: ELISA, biotinylated peptide on streptavidin plates, sigmoid fit (apparent KD)
[4] = CD thermal denaturation scan in GuHCl; format: physicochemical; conditions: CD at 222 nm, 11 microM protein in 5 M GuHCl
Description: This coding sequence was subcloned into the pET22b vector (Novagen). […] The resulting construct was transformed into the host E. coli strain BL21(DE3) harboring a chromosomal copy of the T7 polymerase gene under control of the lacUV5 promoter (DE3 lysogen). Transformed cells were grown in medium supplemented with ampicillin and protein expression was induced by the addition of IPTG to exponentially growing cultures. Cells containing the expressed Alphabodies were collected by centrifugation and the pellets were resuspended in 50 mM Tris, 500 mM NaCl, pH 7.8. Cells were then disrupted by sonication and spun down for cell debris removal. The cleared supernatants were applied onto a HITrap IMAC HP column (GE Healthcare) loaded with Ni^2+ ions. Bound proteins were eluted by applying an imidazole gradient from 5 to 1000 mM. Alphabody-containing fractions were pooled, concentrated and loaded on a Superdex 75 size exclusion chromatography (SEC) column (GE Healthcare). During this final purification step, the buffer was changed to 50 mM Tris, 150 mM NaCl, pH 7.8.

[5] = Aggregation tendency (visual inspection, OD 340 nm, SEC profiles, SDS-PAGE); format: physicochemical; conditions: concentration ranges tested, typically up to 1 μM
Description: (§1) However, for these constructs, subcloning of synthetic genes was performed in the pET16b vector (Novagen), instead of in pET22b, in order to have an N-terminal 10-histidine tag.
as §1

[6] = MT4-X4 cells, HXB2 virus, 5 day, cell survival by MTT
[7] = PBMC, HXB2 virus, 7 day, viral p24

enfuvirtide
IC50 [1, 6]: 6 nM | IC50 [2, 7]: 60 nM

c1cc(CN2CCCNCCNCCCNCC2)ccc1CN1CCCNCCNCCCNCC1 [AMD3100]
IC50 ([1]; Human immunodeficiency virus 1, HXB2, 120 h): 54 nM | IC50 ([2]; Human immunodeficiency virus 1, HXB2, PBMC, 168 h): 97 nM

B1: Alphabody scAB013_C2 with C-terminal Leu-Glu-(His)6 tag (designed binder)
chain: MSIEEIQKQIAAIQKQIAAIQKQIYRMTGGSSGGSMQMYTIQIQILIIQAQIQQIQNQIELMTLGGSSGGMSIEEIQKQIAAIQKQIAAIQKQIYRMTPLEHHHHHH
Kd [3]: > 10000 nM

B2: scAB013_C2: gp41 HR2-mimicking Alphabody, SEQ ID No: 69, expressed with C-terminal (His)6 tag (protein)
chain: MSIEEIQKQIAAIQKQIAAIQKQIYRMTGGSSGGSMQMYTIQIQILIIQAQIQQIQNQIELMTLGGSSGGMSIEEIQKQIAAIQKQIAAIQKQIYRMTP
modifications: C-terminal His6 tag; Alphabody ′scAB013_C2′ sequence
IC50 [1, 6]: 62 nM | transition temperature Tm [4]: 72 °C | IC50 [2, 7]: 218 nM

B3: scAB_RsvN1: Alphabody with grafted HRSV N-trimer-like binding groove, SEQ ID No: 71 (protein)
chain: SAEIQKIQSAIASTQQAIASLQNAIYVFTGGSGGSGGMSIEEIQKQIAAIQKQIAAIQKQIYRMTGSGGGGSGMSINEIKKQLLAINKQVVAIAQQVSAMSPSR
modifications: Alphabody ′scAB_RsvN1′ sequence
tendency to aggregate [5]: None of the three Alphabodies showed tendency to aggregate

B4: scAB_RsvN2: Alphabody with grafted HRSV N-trimer-like binding groove, SEQ ID No: 72 (protein)
chain: SAAIESTQQAIASIQNAIAVIQQKIYDLTGGSGGSGGMSIEEIQKQIAAIQKQIAAIQKQIYRMTGSGGGGSGMSLLEINKQVVAISQQISAITKQILRMKNTP
modifications: Alphabody ′scAB_RsvN2′ sequence
tendency to aggregate [5]: None of the three Alphabodies showed tendency to aggregate

B5: scAB_RsvC2: Alphabody with grafted HRSV HR2-like B-helix, SEQ ID No: 75 (protein)
chain: MSIEEIQKQIAAIQKQIAAIQKQIYRMTGGSGGSGGDVQIKIIQSQIYIIQSDILLIQAQISRMTGSGGGGSGMSIEEIQKQIAAIQKQIAAIQKQIYRMTP
modifications: Alphabody ′scAB_RsvC2′ sequence
tendency to aggregate [5]: None of the three Alphabodies showed tendency to aggregate

B6: scAB_Bis: optimized bispecific single-chain Alphabody binding gp41 HR2 and N-trimer, SEQ ID No: 78 (protein)
chain: MGHHHHHHHHHHSSHIEGRHGSAIQQIQKAIATIQKAIAWIQKKIYMITGGSGGSGGDMAMYAIQIAILIIQAQIQQIQNEIALMTLGSGGGGSGGDIQQIQKQIVAIMKQIVAIVKQISAITP
modifications: Alphabody helix sequence scAB_Bis
tendency to aggregate [5]: None of the three Alphabodies showed tendency to aggregate

B7: scAB_Env03mut: monofunctional control of scAB_Bis with A- and C-helix mutations only, SEQ ID No: 79 (protein)
chain: MGHHHHHHHHHHSSHIEGRHGSAIQQIQKAIATIQKAIAWIQKKIYMITGGSGGSGGGSIEEIQKQIAAIQKQIAAIQKQIYAITGSGGGGSGGDIQQIQKQIVAIMKQIVAIVKQISAITP
modifications: Alphabody helix sequence scAB_Env03mut
tendency to aggregate [5]: None of the three Alphabodies showed tendency to aggregate

B8: scAB013_C2mut: monofunctional control of scAB_Bis with B-helix mutations only, SEQ ID No: 80 (protein)
chain: MGHHHHHHHHHHSSHIEGRHMSIEEIQKQIAAIQKQIAAIQKQIYRMTGGSGGSGGDMAMYAIQIAILIIQAQIQQIQNEIALMTLGSGGGGSGMSIEEIQKQIAAIQKQIAAIQKQIYRMTP
modifications: Alphabody helix sequence scAB013_C2mut
tendency to aggregate [5]: None of the three Alphabodies showed tendency to aggregate

Reference: patent US20130261049A1, “ALPHABODIES SPECIFICALLY BINDING TO CLASS-I VIRAL FUSION PROTEINS AND METHODS FOR PRODUCING THE SAME” (priority 2011, published 2013)
